The experiment has as its target hIK1 intermediate conductance, calcium-activated potassium channel (human) (UniProt O15554). The experiment can be described thus: cell-based or functional assay.

Sequence of iberiotoxin (P24663 whole entry): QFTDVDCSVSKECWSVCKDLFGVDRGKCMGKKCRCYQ
Sequence of hIK1 intermediate conductance, calcium-activated potassium channel (human) (O15554 other isoform, or with tags, fused parts or gaps): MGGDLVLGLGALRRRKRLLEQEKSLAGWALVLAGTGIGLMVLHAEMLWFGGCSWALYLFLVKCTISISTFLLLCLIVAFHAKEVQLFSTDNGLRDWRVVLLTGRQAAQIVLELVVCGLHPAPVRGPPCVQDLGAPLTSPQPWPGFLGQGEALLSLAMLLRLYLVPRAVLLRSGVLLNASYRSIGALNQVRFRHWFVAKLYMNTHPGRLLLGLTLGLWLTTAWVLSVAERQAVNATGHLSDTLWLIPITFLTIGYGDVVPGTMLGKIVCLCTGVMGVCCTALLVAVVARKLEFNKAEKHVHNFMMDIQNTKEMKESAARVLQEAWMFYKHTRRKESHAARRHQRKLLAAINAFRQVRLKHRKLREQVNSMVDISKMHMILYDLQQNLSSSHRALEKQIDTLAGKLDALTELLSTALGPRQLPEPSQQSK

As for “iberiotoxin (from UniProt P24663 1-37) (peptide)”, the percent block of hIK1 currents at 50 nM came to 15%.

Source of the values: patent US6987169.
